Results: patent US20100113367A1 (IPSEN PHARMA S A S, published 2010)
Numbered stars: 1 amine (or outer) side, 2 acyl side, 3 side chain; on linkers, the order of the positions; unused ones are H or OH. Bridge positions count the residues as written; N and C are the ends. Square brackets hold non-standard residues; d marks the D form. Pipz(1-CH2CO,4-CH2CH2NH) = O=C(CN1CCN(CCN[*:1])CC1)[*:2]; Tyr(3-I) = N[C@@H](Cc1ccc(O)c(I)c1)C(=O)O; Suc = O=C(CCC(=O)[*:2])[*:1]; Nle = CCCC[C@H](N)C(=O)O; rvGly = not defined here; Glut = not defined here; Abu = CC[C@H](N)C(=O)O; Apn = not defined here; AEEA = NCCOCCOCC(=O)O; Ahx = NCCCCCC(=O)O; GABA = NCCCC(=O)O; βAla = NCCC(=O)O

Tests used:
[1] = target: T1, native bombesin/GRP receptor of AR42J rat pancreas cells (rat, UniProt P52500 1-384); assay: radioligand displacement, AR42J rat pancreas cell membranes, tracer [125I-Tyr4]bombesin
T1 construct: whole, on cells; Used as membrane homogenate of AR42J cells; also called bombesin receptor
Description: The homogenates were washed twice by centrifugation (39,000 g/10 minutes) and the final pellets were resuspended in 50 mM Tris-HCl containing 2.5 mM MgCl₂ and 0.1% BSA. For the assay, aliquots of membrane homogenate (0.4 ml) were incubated with 0.05 nM [¹²⁵I-Tyr4]bombesin (2200 Ci/mmol) (New England Nuclear®, Boston, Mass., U.S.A.) with and without 0.05 ml of unlabeled competing test peptides. After a 30 minute incubation period at 4° C., the bound [¹²⁵I-Tyr4]bombesin was separated from the free bombesin by rapid filtration through GF/B filters (Brandel®, Gaithersburg, Md., U.S.A.) which had been previously soaked in 0.3% polyethyleneimine. The filters were then washed three times with 5-ml aliquots of ice-cold 50 mM Tris-HCl. The bound radioactivity trapped on the filters was counted by gamma spectrometry (Wallac LKB®, Gaithersburg, Md., U.S.A.). Specific binding was defined as the total [¹²⁵I-Tyr4]bombesin bound minus that bound in the presence of 1000 nM bombesin (Bachem®, Torrence, Calif., U.S.A>).

[2] = target: human somatostatin receptor subtype hSSTR-5 (human) (UniProt P35346); assay: radioligand displacement, CHO-K1 hSSTR-5 membranes, tracer m40
[3] = target: human somatostatin receptor subtype hSSTR-2 (human) (UniProt P30874); assay: radioligand displacement, CHO-K1 hSSTR-2 membranes, tracer m39
[4] = target: human somatostatin receptor subtype hSSTR-3 (human) (UniProt P32745); assay: radioligand displacement, CHO-K1 hSSTR-3 membranes, tracer [125I-Tyr11]SRIF-14
[5] = target: native bombesin/GRP receptor of AR42J rat pancreas cells (rat) (UniProt P52500); assay: radioligand displacement, AR42J rat pancreas cell membranes, tracer [125I-Tyr4]bombesin
native bombesin/GRP receptor of AR42J rat pancreas cells (rat), sequence (P52500 whole entry): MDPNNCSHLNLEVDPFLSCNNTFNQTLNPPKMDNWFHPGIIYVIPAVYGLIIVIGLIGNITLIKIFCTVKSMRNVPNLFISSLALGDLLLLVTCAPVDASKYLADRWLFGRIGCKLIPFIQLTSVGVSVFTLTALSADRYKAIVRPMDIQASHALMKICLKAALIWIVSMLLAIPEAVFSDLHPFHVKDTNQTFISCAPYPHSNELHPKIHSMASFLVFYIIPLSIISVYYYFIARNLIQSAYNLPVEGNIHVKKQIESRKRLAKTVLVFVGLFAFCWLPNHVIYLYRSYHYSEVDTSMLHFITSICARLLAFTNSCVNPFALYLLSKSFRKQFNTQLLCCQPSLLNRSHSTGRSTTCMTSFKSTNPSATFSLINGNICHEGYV

T1 sequence (P52500 whole entry): as above
human somatostatin receptor subtype hSSTR-5 (human), sequence (P35346 whole entry): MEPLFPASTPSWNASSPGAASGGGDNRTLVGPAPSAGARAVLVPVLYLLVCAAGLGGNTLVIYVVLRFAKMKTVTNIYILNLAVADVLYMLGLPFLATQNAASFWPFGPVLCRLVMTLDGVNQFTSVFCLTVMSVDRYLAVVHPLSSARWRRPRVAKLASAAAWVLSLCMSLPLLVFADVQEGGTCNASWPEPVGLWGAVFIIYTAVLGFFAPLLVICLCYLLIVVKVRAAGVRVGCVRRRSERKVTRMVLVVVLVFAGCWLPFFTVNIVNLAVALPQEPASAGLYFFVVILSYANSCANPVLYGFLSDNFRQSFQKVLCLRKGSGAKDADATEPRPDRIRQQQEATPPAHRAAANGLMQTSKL
human somatostatin receptor subtype hSSTR-2 (human), sequence (P30874 whole entry): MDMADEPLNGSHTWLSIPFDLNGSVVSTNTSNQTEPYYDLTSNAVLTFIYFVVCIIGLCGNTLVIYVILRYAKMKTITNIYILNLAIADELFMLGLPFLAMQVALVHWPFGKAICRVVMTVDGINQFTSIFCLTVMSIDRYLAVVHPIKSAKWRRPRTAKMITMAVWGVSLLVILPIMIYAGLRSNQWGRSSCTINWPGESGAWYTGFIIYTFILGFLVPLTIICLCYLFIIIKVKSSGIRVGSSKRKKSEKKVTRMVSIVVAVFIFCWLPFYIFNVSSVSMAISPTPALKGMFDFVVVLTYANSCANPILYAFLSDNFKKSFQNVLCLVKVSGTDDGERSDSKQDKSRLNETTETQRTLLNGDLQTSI
human somatostatin receptor subtype hSSTR-3 (human), sequence (P32745 whole entry): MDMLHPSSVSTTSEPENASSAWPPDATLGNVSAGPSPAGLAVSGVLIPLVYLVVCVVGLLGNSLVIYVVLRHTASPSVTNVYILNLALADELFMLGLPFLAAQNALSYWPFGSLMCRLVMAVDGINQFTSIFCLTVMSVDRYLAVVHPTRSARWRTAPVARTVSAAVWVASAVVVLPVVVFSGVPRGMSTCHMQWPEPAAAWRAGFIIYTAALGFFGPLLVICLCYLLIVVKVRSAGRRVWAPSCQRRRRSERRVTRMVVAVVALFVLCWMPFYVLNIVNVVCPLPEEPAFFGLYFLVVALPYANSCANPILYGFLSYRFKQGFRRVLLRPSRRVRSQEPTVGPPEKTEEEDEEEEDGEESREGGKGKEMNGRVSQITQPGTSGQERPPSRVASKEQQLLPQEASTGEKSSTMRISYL

B1: Camptothecin-rvGly-Suc-(Doc)4-Arg-D-Ala-D-Tyr-Gln-Trp-Ala-Val-β-Ala-His-Leu-Nle-NH2 (peptide)
peptide: {Camptothecin-rvGly-Suc-AEEA-AEEA-AEEA-AEEA}-R[dA][dY]QWAV[βAla]HL[Nle]-NH2
modifications: reading uncertain; also: printed as Camptothecin-rvGly-Suc-(Doc)4-Arg-D-Ala-D-Tyr-Gln-Trp-Ala-Val-β-Ala-His-Leu-Nle-NH2
notes: Bombesin analog conjugate
With B1 as the binder, how does the Ki [1] read?
The Ki was 1.1 nM.

B2: Camptothecin-rvGly-Glut-(Doc)4-Lys-D-Tyr-D-Tyr-c(Cys-3-(I)Tyr-D-Trp-Lys-Abu-Cys)-Thr-NH2 (peptide)
peptide: {Camptothecin-rvGly-Glut-AEEA-AEEA-AEEA-AEEA}-K[dY][dY]C[Tyr(3-I)][dW]K[Abu]CT-NH2
modifications: disulfide 4-9; reading uncertain
For B2, which Ki [2] is on record?
Its Ki is 3.86 nM.

What about the Ki [3] of the same binder?
Its Ki is 0.1 nM.

And the Ki [4]?
Its Ki is 94 nM.

B3: Camptothecin-rvGly-Glut-(Doc)4-Lys-D-Tyr-D-Tyr-c(Cys-Phe-Phe-D-Trp-Lys-Thr-Cys)-NH2 (peptide)
peptide: {Camptothecin-rvGly-Glut-AEEA-AEEA-AEEA-AEEA}-K[dY][dY]CFF[dW]KTC-NH2
modifications: disulfide 4-10; reading uncertain
With B3 as the binder, how does the Ki [2] read?
The Ki was 481 nM.

What about the Ki [3] of the same binder?
The Ki was 9.38 nM.

B4: Camptothecin-rvGly-Suc-(Doc)4-Aepa-D-Ser-D-Tyr-Gln-Trp-Ala-Val-β-Ala-His-Leu-Nle-NH2 (peptide)
peptide: {Camptothecin-rvGly-Suc-AEEA-AEEA-AEEA-AEEA-Pipz(1-CH2CO,4-CH2CH2NH)}-[dS][dY]QWAV[βAla]HL[Nle]-NH2
modifications: reading uncertain; also: printed as Camptothecin-rvGly-Suc-(Doc)4-Aepa-D-Ser-D-Tyr-Gln-Trp-Ala-Val-β-Ala-His-Leu-Nle-NH2
B4 was tested. Which Ki [5] did it give?
The Ki was 3.96 nM.

B5: Camptothecin-rvGly-Suc-(Doc)4-Aepa-Leu-Gaba-Gln-Trp-Ala-Val-β-Ala-His-Leu-Nle-NH2 (peptide)
peptide: Camptothecin-[rvGly][Suc][AEEA][AEEA][AEEA][AEEA][Pipz(1-CH2CO,4-CH2CH2NH)]L[GABA]QWAV[βAla]HL[Nle]-NH2
B5 was tested. Which Ki [5] did it give?
The Ki was 18.2 nM.

B6: Camptothecin-rvGly-Glut-(Doc)6-Lys-D-Tyr-D-Tyr-c(Cys-3-(I)Tyr-D-Trp-Lys-Abu-Cys)-Thr-NH2 (peptide)
peptide: {Camptothecin-rvGly-Glut-AEEA-AEEA-AEEA-AEEA-AEEA-AEEA}-K[dY][dY]C[Tyr(3-I)][dW]K[Abu]CT-NH2
modifications: disulfide 4-9; reading uncertain
B6 was tested. Which Ki [2] did it give?
The Ki was 3 nM.

What about the Ki [3] of the same binder?
The Ki was 0.36 nM.

And the Ki [4]?
The Ki was 125 nM.

B7: Camptothecin-rvGly-Suc-(Doc)4-Lys-D-Ser-D-Tyr-Gln-Trp-Ala-Val-β-Ala-His-Leu-Nle-NH2 (peptide)
peptide: {Camptothecin-rvGly-Suc-AEEA-AEEA-AEEA-AEEA}-K[dS][dY]QWAV[βAla]HL[Nle]-NH2
modifications: reading uncertain; also: printed as Camptothecin-rvGly-Suc-(Doc)4-Lys-D-Ser-D-Tyr-Gln-Trp-Ala-Val-β-Ala-His-Leu-Nle-NH2
notes: Bombesin analog conjugate
With B7 as the binder, how does the Ki [1] read?
The Ki was 1.45 nM.

B8: Camptothecin-rvGly-Suc-(Doc)4-Aepa-Gaba-D-Ser-D-Tyr-Gln-Trp-Ala-Val-β-Ala-His-Leu-Nle-NH2 (peptide)
peptide: {Camptothecin-rvGly-Suc-AEEA-AEEA-AEEA-AEEA-Pipz(1-CH2CO,4-CH2CH2NH)}-[GABA][dS][dY]QWAV[βAla]HL[Nle]-NH2
modifications: reading uncertain; also: printed as Camptothecin-rvGly-Suc-(Doc)4-Aepa-Gaba-D-Ser-D-Tyr-Gln-Trp-Ala-Val-β-Ala-His-Leu-Nle-NH2
notes: Bombesin analog conjugate
For B8, which Ki [1] is on record?
The Ki was 4.82 nM.

B9: Camptothecin-rvGly-Suc-(Doc)4-Aepa-Gaba-Asn-Gln-Trp-Ala-Val-β-Ala-His-Leu-Nle-NH2 (peptide)
peptide: Camptothecin-[rvGly][Suc][AEEA][AEEA][AEEA][AEEA][Pipz(1-CH2CO,4-CH2CH2NH)][GABA]NQWAV[βAla]HL[Nle]-NH2
How did the Ki [5] turn out when B9 was run?
Its Ki is 7.65 nM.

B10: Camptothecin-rvGly-Suc-(Doc)4-Aepa-Ahx-Gln-Trp-Ala-Val-β-Ala-His-Leu-Nle-NH2 (peptide)
peptide: Camptothecin-[rvGly][Suc][AEEA][AEEA][AEEA][AEEA][Pipz(1-CH2CO,4-CH2CH2NH)][Ahx]QWAV[βAla]HL[Nle]-NH2
B10 was tested. Which Ki [5] did it give?
Its Ki is 1.9 nM.

B11: Camptothecin-rvGly-Suc-(Doc)4-Aepa-Nle-Gln-Trp-Ala-Val-β-Ala-His-Leu-Nle-NH2 (peptide)
peptide: Camptothecin-[rvGly][Suc][AEEA][AEEA][AEEA][AEEA][Pipz(1-CH2CO,4-CH2CH2NH)][Nle]QWAV[βAla]HL[Nle]-NH2
For B11, which Ki [5] is on record?
Its Ki is 4.57 nM.

B12: Camptothecin-rvGly-Suc-(Doc)4-Aepa-Apn-Asn-Gln-Trp-Ala-Val-β-Ala-His-Leu-Nle-NH2 (peptide)
peptide: Camptothecin-[rvGly][Suc][AEEA][AEEA][AEEA][AEEA][Pipz(1-CH2CO,4-CH2CH2NH)][Apn]NQWAV[βAla]HL[Nle]-NH2
modifications: reading uncertain; also: printed as Camptothecin-rvGly-Suc-(Doc)4-Aepa-Apn-Asn-Gln-Trp-Ala-Val-β-Ala-His-Leu-Nle-NH2
B12 was tested. Which Ki [5] did it give?
The Ki was 4.07 nM.
